Results reported in the supplement of paper PMC12764529.
± gives the half width of the 95% confidence interval.

What was measured:
[1] = folding stability dG unfold from chymotrypsin proteolysis; higher = more stable
Summary of the method: (§1)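 Sequencing followed digestion of designed mini-proteins with trypsin and chymotrypsin, each at 11 concentrations in threefold dilutions together with a no-protease condition. The mini-proteins were under 80 residues, had no cysteine, sat in a PA-tagged cDNA display construct, and were kept only if AlphaFold2 dimer inter-PAE was above 15. From the counts, Bayesian fitting gave K50, and unfolding free energy was derived against a sequence-predicted unfolded-state K50 and a shared folded-state K50, per protease or combined.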

[2] = folding stability dG unfold (combined trypsin and chymotrypsin); higher = more stable
Summary of the method: as §1

[3] = folding stability dG unfold from trypsin proteolysis; higher = more stable
Summary of the method: as §1

Sequence | folding stability dG unfold [1] [kcal/mol] | folding stability dG unfold [2] [kcal/mol] | folding stability dG unfold [3] [kcal/mol]
SAGGMNVTVTVELVPLPDEPVLFVTVETEDGSVSVITFDPATGTATVLKVSPTKTEITTVPAEDILLASAGG [r13_328_TrMRF] | 2.79 ± 0.11 | 2.43 ± 0.2 | 1.8 ± 0.13
SAGGSAGGMNIQILKVDPDNGTITLAIPVDNWIVAISIKIRPDPNNPGMFKLDIDIHWFPADDISAGGSAGG [r6_372_TrROS] | 4.44 ± 0.11 | 4.28 ± 0.091 | 3.77 ± 0.14
SAGFVMIKIELENPGNGKERELSIIIPYKSQEDARHIAEEIARELAKNGWKIKKIEVMVMPIPPPPDDPSAG [r5_660_TrROS] | 5.29 ± 0.16 | 5.1 ± 0.24 | 3.95 ± 0.12
SAGGSAGGSAGGENNWMIFIEIKIEWEIKPTPDGKWKWEPEIEIKSIRIMPPNSPAAKDLSAGGSAGGSAGG [r7_889_TrROS] | 2.51 ± 0.1 | 2.6 ± 0.24 | 2.95 ± 0.18
SAGGSAGGSNWVEIDIPHDDGRDIKITMWPDGYMQIEYPNGKPVYEIPVPPNMSIDEIAERILSAGGSAGGS [r12_990_TrROS] | 0.498 ± 0.067 | 0.624 ± 0.15 | 0.641 ± 0.045
SAGGSAGGSMPTLRVKIEVTNPDGEKLELTITVPRDMTLEELKALAEELAKAGYEVRIVEVEPSAGGSAGGS [r12_804_TrROS_Hall] | 2.83 ± 0.069 | 3.19 ± 0.17 | 3.61 ± 0.15
SAGGMVRVTVVPTPGRAGEPVTLVIEHPDGTRTVPLPPDTSPEEARAAAERLAEEEGLDVAEVVFEASAGGS [r16_753_JUSTAS] | 0.428 ± 0.086 | 0.376 ± 0.098 | 0.243 ± 0.07
SAGGPGAAPTSTTVTVTIHLPMPPDVSDEEAKALAKERIKEEFPPSYTIESITVDPATNVVTATVKVASAGG [r19_81_JUSTAS] | 2.88 ± 0.1 | 3.11 ± 0.16 | 3.32 ± 0.15
SAGGGMTVETTSKETPLPDGSLRRTETITITEPGGKPLTRTTTKIWDPSTGKVLETRPVSNATVVAESSAGG [r13_1008_JUSTAS] | -0.0787 ± 0.15 | -0.187 ± 0.14 | -0.944 ± 0.82
MSEKTFVVEVKVESPEEAEELIEKLKEKLSGEKYEVKIEKVEVSPDGTVKVHITFKPGVPEEFIKKALEEES [r1_485_TrMRF] | 2.97 ± 0.086 | 2.7 ± 0.11 | 2.28 ± 0.13
SAGGSAGGSAGLPENVKLVKVTVTITYPNGEKETIPVVAPVPVLEKLLSLPGLPVSVTDESAGGSAGGSAGG [r17_313_TrMRF] | 0.0595 ± 0.071 | 0.333 ± 0.12 | 0.465 ± 0.028
SAGGSAGNPKPVVLEVEVVLDIPPENPDVLRAQAEAVARALAKPGLRVEVLDYDPDKAAFTIRITGSAGGSA [r15_563_TrMRF] | 1.84 ± 0.064 | 1.89 ± 0.077 | 1.71 ± 0.039
SAGGSAGGVTINFPDGVTIMVDPGTGKIYIMNPNGYIFKFTIERKPNEWKLKIEPIKPIPPDDFSAGGSAGG [r6_324_TrROS] | 3.7 ± 0.091 | 3.16 ± 0.19 | 2.55 ± 0.085
SAGGKPKEIKIKVEVEEKEVNGKKYLVVKIELEVDGKKIEIELVVEMSEEEKEKAKKLAEELLKKLKSAGGS [r8_480_TrROS_Hall] | 2.77 ± 0.22 | 2.82 ± 0.4 | 2.6 ± 0.21
SASESAVVEEEYTIDVTTVTPPGTPTTEPVRLTITRLPPNTVEVTLTAPDGKTVETRVIPLSVSLEELLSAG [r14_559_JUSTAS] | 0.134 ± 0.3 | 0.493 ± 0.16 | 0.413 ± 0.14
SVYIPIPMGDPEGLKEMLDFIKNILEKNQENGYENVPIPIHMPNGGPFEFPIDPNSTLEEQLDQIEKFIESA [r9_127_TrROS] | 0.663 ± 0.078 | 1.15 ± 0.24 | 1.56 ± 0.11
SAGATATPPAVRVATARLPLPFGTGTEVTVTTYSDGSATVTARFPDGVVATAFVSPDGSAVVTVAPAGGSAG [r5_168_TrMRF] | 2.955 ± 0.024 | 2.41 ± 0.061 | 0.992 ± 0.064
SAGGSAGGSSPVRMVATIPLPDGTTITVEAEIVRLPDGTILIKTPSGEIIEVPPDVPVEFFPESAGGSAGGS [r20_227_JUSTAS] | 2.45 ± 0.052 | 2.23 ± 0.054 | 1.78 ± 0.057
SAGGGLLEELARELGFEAEIEEIPETGILRITLRPEDGSEVEITVKVTRIPGLGEVKLEVLEVKVRPTSAGG [r13_936_TrMRF] | 3.31 ± 0.052 | 3.33 ± 0.2 | 3.15 ± 0.16
SAGGSAMTITIKIENEDVTIPSSKSKEEILKAIKENPDVPVTVTLPDGTPVTLSPEELEKLIKEEKSAGGSA [r15_36_JUSTAS] | 1.23 ± 0.022 | 1.11 ± 0.11 | 1.02 ± 0.032
SAGGSSESKTVTAPDGRVLEFTKSLDPTSSNSRYTLTVYAPESGEPLREAEFSSEEEAEKYIAEGLGSAGGS [r8_450_JUSTAS] | 0.487 ± 0.072 | 0.331 ± 0.068 | -0.0113 ± 0.067

Sequence | folding stability dG unfold [1] [kcal/mol] | folding stability dG unfold [2] [kcal/mol] | folding stability dG unfold [3] [kcal/mol]
SAGEVELKIVLPKEEIEKILEALRKLAEEAGLEVEVEKIEKKEDGYYVITVTVKFKETEKEIKIEIIIPSAG [r5_41_TrROS_Hall] | 2.55 ± 0.12 | 2.69 ± 0.31 | 3 ± 0.51
SAGMVEVTVTIIPKKVKDKWVNEAVVSITVPGGPTSTITMPFGSKEEAIKYLKEKGLEVSEENVSVEIESAG [r5_233_JUSTAS] | 3.395 ± 0.028 | 3.23 ± 0.097 | 2.31 ± 0.12
SAGGSAKPKIEIEVEKLEGVKEGDTIEVKIKFPNGFIIKIEAKVKRVDGKLVIEVTKVEVIPKEDLSAGGSA [r15_636_TrROS_Hall] | 3.17 ± 0.2 | 3.16 ± 0.3 | 2.7 ± 0.14
SAGGAEQAREILKEWGFEISEVDPKKKTVQVTPPESGMPISIDVDEPGQIKIKIRMNGKPRTFEIPPSAGGS [r16_197_TrROS] | -0.634 ± 0.87 | -0.215 ± 0.22 | -0.329 ± 0.24
SAGGSAGGSAEKPPPPVVTLRVRVVVEVDGKLYVATAEVRLVDGKLEIRVRIEEVPPGAPVSAGGSAGGSAG [r3_49_TrROS_Hall] | 4.59 ± 0.22 | 4.34 ± 0.17 | 3.7 ± 0.12
SAGGSAGEIEGEEAAKLVEDALRALDPNVRVEYEPLPGEKPLLLVRVYRVDPESGAETPLATLLIGSAGGSA [r15_682_TrMRF] | 2.69 ± 0.066 | 2.4 ± 0.077 | 1.78 ± 0.05
SAGGSAGGSMEVDIEVETLETEVSFLPGDLIKVKKLVKITLPNGEVLEEETEEIIPKSEIGKLSAGGSAGGS [r12_1028_JUSTAS] | -0.00695 ± 0.12 | 0.419 ± 0.24 | 0.808 ± 0.078
SAGGTVTLTLELTVKVKRKDGKTETKKVTLTITVEVKEGETVYTPDGKKIKPGKSAEELAKELLKKLSAGGS [r16_440_TrROS_Hall] | 1.28 ± 0.12 | 1.27 ± 0.32 | 1.17 ± 0.089
SAGGELVLLSESESVFTSPDGSRTVVRTLLTERPGDLLVEITTTTTIEPESGAVTTTTTTRVLPRRESAGGS [r8_264_JUSTAS] | 3.021 ± 0.013 | 2.8 ± 0.038 | 2.33 ± 0.043
SAEELARRLRELGLEVEIVRIERERRPDGTIRIEVRLDGELVAELEVRLPPPPPPVEVVRDADGRERRVRSA [r9_442_TrROS_Hall] | 1.82 ± 0.4 | 1.9 ± 0.27 | 1.63 ± 0.18
SAGNIKISYDPDDGWLTITFPVAPGQEFSFKLNIMLPENGAKIKNVEVTGPLKDGQPVTITMKVTGIKPSAG [r5_737_TrROS] | 3.77 ± 0.064 | 3.27 ± 0.11 | 2.2 ± 0.13
SAGGSAGGSMRTLKARITLRGPDGVEYRFEFEIPAGSAEDVVAFLKNLPVPPGWEVELEVLDESAGGSAGGS [r20_162_TrMRF] | 5.54 ± 0.088 | 5.44 ± 0.1 | 4.42 ± 0.16
SAGGSAGGSAGGPNNKPKPKQVTFDIEIEDIEIDPEHGLISIEIRFPDGGKEITARIPISAGGSAGGSAGGS [r10_427_TrROS] | 0.27 ± 0.11 | 0.276 ± 0.16 | 0.14 ± 0.059
SAGGGSMKTIELTVTNPATGETVTVTLELDPSVSEEEVEARIKETEEAVEKELLAPEPPLAPTPARASAGGS [r16_191_JUSTAS] | 1.22 ± 0.023 | 0.765 ± 0.062 | -0.465 ± 0.096
SAGGSAGGSAGGSMVTLTVEKTFTSLLKTPESELIPVTSTVTEEVTIPESEATEELIKELSAGGSAGGSAGG [r7_777_JUSTAS] | -0.0189 ± 0.23 | 0.399 ± 0.2 | 0.388 ± 0.054
SAGGSPPLPLKITKITDTRYERNPDGQGWVKIEIRLPENGKPITIPVQADSPEQAEYAVKEALKKFSAGGSA [r2_248_TrROS] | -0.424 ± 0.56 | -0.31 ± 0.36 | -0.315 ± 0.16
STLPPGATRTFEFTDPATGKKITVTLTRLPDGTVRVTLTTTDPATGKTTTETFTLPGETLEALLALVEESSA [r9_618_JUSTAS] | 4.86 ± 0.12 | 4.68 ± 0.16 | 4.28 ± 0.22
SAGTIHFMVPRDEMSDEEAEDIVNTIAKHFPGFKIDRIYWHKQPDPDGDPRRMYHVEIKIKIPLPPGMKSAG [r5_835_TrROS] | 2.41 ± 0.06 | 2.06 ± 0.059 | 1.29 ± 0.022
SAGGSAGGSAGKKITIPNLDVMRNPDDGMAFIQFGGQMIMIPPNVKIEQDPNGWMEIELPSAGGSAGGSAGG [r17_34_TrROS] | -0.845 ± 0.69 | 0.144 ± 0.12 | 0.625 ± 0.064
SAMVVSEELSPEGTRTTTTFNPATGTSTTTTTPIPEEPPLPPVSIPTSLSPEEREALREELEAAGVPVVLGS [r1_242_JUSTAS] | 0.0811 ± 0.093 | 0.652 ± 0.079 | 1.22 ± 0.047
SAGGSAGGSAMTPEEIKKLFPNAKMKPFKGNGKTVIVIELPSGEKIEIVFDDGKPRIIVYKGSAGGSAGGSA [r18_13_TrMRF] | 1.3 ± 0.091 | 1.32 ± 0.13 | 1.36 ± 0.042
